T1: recombinant human interleukin-20 (human, UniProt Q9NYY1 25-176)
T1 sequence: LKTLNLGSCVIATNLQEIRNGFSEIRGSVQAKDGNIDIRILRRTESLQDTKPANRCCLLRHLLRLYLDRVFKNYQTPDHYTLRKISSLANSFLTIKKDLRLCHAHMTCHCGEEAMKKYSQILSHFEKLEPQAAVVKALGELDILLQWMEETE

T2: murine IL20 (mouse, UniProt Q9JKV9 25-176)
T2 sequence: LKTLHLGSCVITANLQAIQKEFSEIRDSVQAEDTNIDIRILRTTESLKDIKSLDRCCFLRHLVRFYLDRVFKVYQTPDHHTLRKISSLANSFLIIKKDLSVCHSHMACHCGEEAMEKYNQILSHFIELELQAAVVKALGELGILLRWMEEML

T3: cynomolgus IL20 (cynomolgus monkey, UniProt Q9NYY1 25-176 (human entry))
T3 chain: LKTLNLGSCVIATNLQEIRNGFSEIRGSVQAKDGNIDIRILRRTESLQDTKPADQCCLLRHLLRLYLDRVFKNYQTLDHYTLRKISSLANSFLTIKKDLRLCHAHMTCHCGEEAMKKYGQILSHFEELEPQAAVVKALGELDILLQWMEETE

T4: hIL20 peptide 5 (residues 58-78 of SEQ ID NO: 1) (N-terminal biotin)
T4 peptide: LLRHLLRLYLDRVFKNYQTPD

T5: hIL20 peptide 3 (residues 38-57 of SEQ ID NO. 1) (N-terminal biotin)
T5 peptide: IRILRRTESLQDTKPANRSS

T6: hIL20 peptide 2 (residues 28-47 of SEQ ID NO: 1) (N-terminal biotin)
T6 peptide: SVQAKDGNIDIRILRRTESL

T7: hIL20 peptide 1 (residues 18-37 of SEQ ID NO: 1) (N-terminal biotin)
T7 peptide: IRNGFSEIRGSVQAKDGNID

T8: hIL20 peptide 4 (residues 48-67 of SEQ ID NO. 1) (N-terminal biotin)
T8 peptide: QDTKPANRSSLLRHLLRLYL

T9: Peptide no. 41 (Figure 8A)
T9 construct: Ala-scan peptide on the array; also called Peptide no; Q75A
T9 peptide: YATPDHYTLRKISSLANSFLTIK

T10: Peptide no. 55 (Figure 8A)
T10 construct: Ala-scan peptide on the array; also called Peptide no; N90A
T10 peptide: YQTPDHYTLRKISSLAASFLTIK

T11: Peptide no. 57 (Figure 8A)
T11 construct: Ala-scan peptide on the array; also called Peptide no; F92A
T11 peptide: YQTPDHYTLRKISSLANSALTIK

T12: Peptide no. 51 (Figure 8A)
T12 construct: Ala-scan peptide on the array; also called Peptide no; I85A
T12 peptide: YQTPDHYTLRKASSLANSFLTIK

T13: Peptide no. 54 (Figure 8A)
T13 construct: Ala-scan peptide on the array; also called Peptide no; L88A
T13 peptide: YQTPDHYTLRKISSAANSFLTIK

T14: Peptide no. 46 (Figure 8A)
T14 construct: Ala-scan peptide on the array; also called Peptide no; Y80A
T14 peptide: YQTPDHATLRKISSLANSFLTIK

T15: Peptide no. 60 (Figure 8A)
T15 construct: Ala-scan peptide on the array; also called Peptide no; I95A
T15 peptide: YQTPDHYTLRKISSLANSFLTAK

T16: Peptide no. 47 (Figure 8A)
T16 construct: Ala-scan peptide on the array; also called Peptide no; T81A
T16 peptide: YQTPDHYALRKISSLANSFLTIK

T17: Peptide no. 44 (Figure 8A)
T17 construct: Ala-scan peptide on the array; also called Peptide no; D78A
T17 peptide: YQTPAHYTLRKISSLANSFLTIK

T18: Peptide no. 45 (Figure 8A)
T18 construct: Ala-scan peptide on the array; also called Peptide no; H79A
T18 peptide: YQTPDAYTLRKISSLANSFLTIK

T19: Peptide no. 58 (Figure 8A)
T19 construct: Ala-scan peptide on the array; also called Peptide no; L93A
T19 peptide: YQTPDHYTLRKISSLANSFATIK

T20: Peptide no. 61 (Figure 8A)
T20 construct: Ala-scan peptide on the array; also called Peptide no; K96A
T20 peptide: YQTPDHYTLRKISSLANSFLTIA


Key:
[1] = biological target: T1, recombinant human interleukin-20; test: cell-based or functional assay
murine IL20 = biological target: T2, murine IL20; test: cell-based or functional assay
cynomolgus IL20 = biological target: T3, cynomolgus IL20; test: cell-based or functional assay
[2] = biological target: T4, hIL20 peptide 5 (residues 58-78 of SEQ …); test: SPR, biotinylated peptide on streptavidin chip (500 RU), antibody injected
Protocol: (§1) The peptides, containing N-terminal biotin, were immobilized (500 RU) in individual flow cells on streptavidin coated (SA) chips. The individual antibodies (5 μg/ml) were injected across all flow cells for 120 s, followed by a 180 s dissociation phase. Experiments were performed on Biacore3000 and BiacoreT100 instruments. The results were evaluated using Scrubber2 software (BioLogic Software Pty Ltd).

[3] = biological target: T5, hIL20 peptide 3 (residues 38-57 of SEQ …); test: as above
Protocol: as §1

[4] = biological target: T6, hIL20 peptide 2 (residues 28-47 of SEQ …); test: as above
Protocol: as §1

[5] = biological target: T7, hIL20 peptide 1 (residues 18-37 of SEQ …); test: as above
Protocol: as §1

[6] = biological target: T8, hIL20 peptide 4 (residues 48-67 of SEQ …); test: as above
Protocol: as §1

[7] = biological target: T9, Peptide no. 41 (Figure 8A); test: Ala-scan peptide array of hIL20 74-96 on cellulose; fluorescein-labelled antibody; fluorescence as OD
Protocol: (§2) The screenings were done using fluorescence labelled antibodies. The labelling was done by gel-filtering the antibody stock against 1% NaHCO3, using NAP5 column (GE Healthcare according the manual from manufacturer. This was followed by adding 25 mole equivalents of 5(6)-carboxyfluorescein N-hydroxysuccinimide ester (Sigma, C1609) dissolved in DMSO. The coupling was allowed to continue for 2 hours followed by a gelfiltration against TRIS washing buffer (50 mM TRIS, pH=7.4, 0.15M NaCl, 0.1 M ArgHCl, 0.05% Tween 20) in order to removed uncoupled fluorescein.
(§3) Screening of arrays were done by adding 10 μl of antibody to 30 ml incubation buffer (0.5% BSA, 50 mM TRIS, pH=7.4, 0.15M NaCl, 0.1 M ArgHCl, 0.05% Tween 20). The sheets were incubated for 1-2 hours, followed by washing five times with washing buffer. […] The fluorescence intensity were measured and transformed into digits that were exported to Prism 5 (Graph Pad Software, USA) for further analysis.

[8] = biological target: T10, Peptide no. 55 (Figure 8A); test: as above
Protocol: as §2, §3

[9] = biological target: T11, Peptide no. 57 (Figure 8A); test: as above
Protocol: as §2, §3

[10] = biological target: T12, Peptide no. 51 (Figure 8A); test: as above
Protocol: as §2, §3

[11] = biological target: T13, Peptide no. 54 (Figure 8A); test: as above
Protocol: as §2, §3

[12] = biological target: T14, Peptide no. 46 (Figure 8A); test: as above
Protocol: as §2, §3

[13] = biological target: T15, Peptide no. 60 (Figure 8A); test: as above
Protocol: as §2, §3

[14] = biological target: T16, Peptide no. 47 (Figure 8A); test: as above
Protocol: as §2, §3

[15] = biological target: T17, Peptide no. 44 (Figure 8A); test: as above
Protocol: as §2, §3

[16] = biological target: T18, Peptide no. 45 (Figure 8A); test: as above
Protocol: as §2, §3

[17] = biological target: T19, Peptide no. 58 (Figure 8A); test: as above
Protocol: as §2, §3

[18] = biological target: T20, Peptide no. 61 (Figure 8A); test: as above
Protocol: as §2, §3

efficacy (percentage inhibition) of IL20-induced proliferation of BaF-3(hIL20R) [1]	efficacy (percentage inhibition) of IL20-induced proliferation of BaF-3(hIL20R) (murine IL20)	efficacy (percentage inhibition) of IL20-induced proliferation of BaF-3(hIL20R) (cynomolgus IL20)	binding result [2]	binding result [3]	binding result [4]	binding result [5]	binding result [6]	binding result [7]	binding result [8]	binding result [9]	binding result [10]	binding result [11]	binding result [12]	binding result [13]	binding result [14]	binding result [15]	binding result [16]	binding result [17]	binding result [18]	Binder
~100%	~100%	~100%	no binding (tested: 5 µg/ml)	no binding (tested: 5 µg/ml)	no binding (tested: 5 µg/ml)	no binding (tested: 5 µg/ml)	no binding (tested: 5 µg/ml)													human anti-hIL20 monoclonal antibody 15D2 (antibody, V domains shown, also called 15D2-wt; 15D2 wild-type) VH: QVQLVQSGAEVKRPGASVKVSCKASGYTFTNDIIHWVRQAPGQRLEWMGWINAGYGNTQYSQNFQDRVSITRDTSASTAYMELISLRSEDTAVYYCAREPLWFGESSPHDYYGMDVWGQGTTVTVSS VL: AIQLTQSPSSLSASVGDRVTITCRASQGISSALAWYQQKPGKAPKLLIYDASSLESGVPSRFSGSGSGTDFTLTISSLQPEDFATYYCQQFNSYPLTFGGGTKVEIKR
								binds	binds	binds	binds	binds	binds	binds	binds	binds	binds	binds	binds	human anti-hIL20 monoclonal antibody 5B7 (antibody, human IgG4, V domains shown, described as human IgG4; also called 5B7-wt) VH: QVQLVQSGAEVKRPGASVKVSCKASGYTFSSHIMHWVRQAPGQRLEWMGWINAGYGNTKYSQNFQDRVTITRDTSASTAYMELISLRSEDTAVYYCAREPLWFGELSPHDYYGMDVWGQGTTVTVSS VL: AIQLTQSPSSLSASVGDRVTITCRASQGISSALAWYQQKPGKAPKLLIYDASSLESGVPSRFSGSGSGTDFTLTISSLQPEDFATYYCQQFNSYPLTFGGGTKVEIKR

— patent US20130039923A1 (Novo Nordisk, published 2013)
